Measurements as given in US12269859B2, “Synthetic immune receptors and methods of use thereof” (Angeles Therapeutics, Inc., priority 2016, dated 2025).

B1: 030817-E07 (protein)
chain: MALPVTALLLPLALLLHAARPEIVLTQSPSSLSASVGDRVTITCRASSSLSFMHWYQQKPGKAPKPWIYATSNLASGVPSRFSGSGSGTDYTLTISSLQPEDFATYFCHQWSSNPLTFGGGTKVEIKLEIQNPDPAVYQLRDSKSSDKSVCLFTDFDSQTNVSQSKDSDVYITDKCVLDMRSMDFKSNSAVAWSNKSDFACANAFNNSIIPEDTFFPSSDVPCDVKLVEKSFETDTNLNFQNLSVIGFRILLLKVAGFNLLMTLRLWSSRAKRSGSGVKQTLNFDLLKLAGDVESNPGPTSMDWIWRILFLVGAATGAHSFEQVQLVQSGAEVKKPGASVKVSCKASGYTFTSYNMHWVRQAPGQRLEWIGAIYPGNGDTSYNQKFKGRVTVTRDTSANTAYMELSSLKSEDTAVYYCARSHYGSNYVDYFDYWGQGTLVTVSSTREDLKNVFPPEVAVFEPSKAEIAHTQKATLVCLATGFYPDHVELSWWVNGKEVHSGVCTDPQPLKEQPALNDSRYCLSSRLRVSATFWQNPRNHFRCQVQFYGLSENDEWTQDRAKPVTQIVSAEAWGRADCGITSASYHQGVLSATILYEILLGKATLYAVLVSALVLMAMVKRKDSRGRAKRSGSGATNFSLLKQAGDVEENPGPSRGHMTEYKPTVRLATRDDVPRAVRTLAAAFADYPATRHTVDPDRHIERVTELQELFLTRVGLDIGKVWVADDGAAVAVWTTPESVEAGAVFAEIGPRMAELSGSRLAAQQQMEGLLAPHRPKEPAWFLATVGVSPDHQGKGLGSAVVLPGVEAAERAGVPAFLETSAPRNLPFYERLGFTVTADVEVPEGPRTWCMTRKPGA
B2: 030817-W07 (protein)
chain: MALPVTALLLPLALLLHAARPSTVMTQSPDSLAVSLGERATINCKSSQSNSNDVAWYQQKPGQSPKVLIYFASNRYSGVPDRFSGSGYGTDFTLTISSLQAEDVAVYFCQQDYSSPLTFGAGTKLELKRADALEDLKNVFPPEVAVFEPSKAEIAHTQKATLVCLATGFYPDHVELSWWVNGKEVHSGVCTDPQPLKEQPALNDSRYCLSSRLRVSATFWQNPRNHFRCQVQFYGLSENDEWTQDRAKPVTQIVSAEAWGRADCGITSASYHQGVLSATILYEILLGKATLYAVLVSALVLMAMVKRKDSRGRAKRSGSGATNFSLLKQAGDVEENPGPTSMDWIWRILFLVGAATGAHSFEQIQLVQSGSELKKPGASVKVSCKASGYTFTNFGVNWVRQAPGKGLEWMGWINTYTGEPSYAQGFTGRFVFSLDASVSTAYLQISSLKAEDTATYFCTRRTNYYGTSYYYAMDYWGQGTTVTVSSAKTTTRIQNPDPAVYQLRDSKSSDKSVCLFTDFDSQTNVSQSKDSDVYITDKCVLDMRSMDFKSNSAVAWSNKSDFACANAFNNSIIPEDTFFPSSDVPCDVKLVEKSFETDTNLNFQNLSVIGFRILLLKVAGFNLLMTLRLWSSRAKRSGSGVKQTLNFDLLKLAGDVESNPGPSRGHMTEYKPTVRLATRDDVPRAVRTLAAAFADYPATRHTVDPDRHIERVTELQELFLTRVGLDIGKVWVADDGAAVAVWTTPESVEAGAVFAEIGPRMAELSGSRLAAQQQMEGLLAPHRPKEPAWFLATVGVSPDHQGKGLGSAVVLPGVEAAERAGVPAFLETSAPRNLPFYERLGFTVTADVEVPEGPRTWCMTRKPGA
B3: 030817-F07 (protein)
chain: MALPVTALLLPLALLLHAARPEIVLTQSPGTLSLSPGERATLSCRASSSVPYIHWYQQKPGQAPRLLIYATSALASGIPDRFSGSGSGTDFTLTISRLEPEDFAVYYCQQWLSNPPTFGQGTKLELKRLEIQNPDPAVYQLRDSKSSDKSVCLFTDFDSQTNVSQSKDSDVYITDKCVLDMRSMDFKSNSAVAWSNKSDFACANAFNNSIIPEDTFFPSSDVPCDVKLVEKSFETDTNLNFQNLSVIGFRILLLKVAGFNLLMTLRLWSSRAKRSGSGVKQTLNFDLLKLAGDVESNPGPTSMDWIWRILFLVGAATGAHSFEEVQLVQSGAEVKKPGESLKLSCKGSGRTFTSYNMHWVRQMPGKGLEWMGAIYPLTGDTSYNQKSKLQVTISADKSISTAYLQWSSLKASDTAMYYCARSTYVGGDWQFDVWGKGTTVTVSSTREDLKNVFPPEVAVFEPSKAEIAHTQKATLVCLATGFYPDHVELSWWVNGKEVHSGVCTDPQPLKEQPALNDSRYCLSSRLRVSATFWQNPRNHFRCQVQFYGLSENDEWTQDRAKPVTQIVSAEAWGRADCGITSASYHQGVLSATILYEILLGKATLYAVLVSALVLMAMVKRKDSRGRAKRSGSGATNFSLLKQAGDVEENPGPSRGHMTEYKPTVRLATRDDVPRAVRTLAAAFADYPATRHTVDPDRHIERVTELQELFLTRVGLDIGKVWVADDGAAVAVWTTPESVEAGAVFAEIGPRMAELSGSRLAAQQQMEGLLAPHRPKEPAWFLATVGVSPDHQGKGLGSAVVLPGVEAAERAGVPAFLETSAPRNLPFYERLGFTVTADVEVPEGPRTWCMTRKPGA
B4: 031417-L06 (protein)
chain: MALPVTALLLPLALLLHAARPQIVLSQSPAILSASPGEKVTMTCRASSSVSYMHWYQQKPGSSPKPWIYATSNLASGVPARFSGSGSGTSYSFTISRVEAEDAATYYCQQWTFNPPTFGGGTRLEIKRTVAALEDLKNVFPPEVAVFEPSKAEIAHTQKATLVCLATGFYPDHVELSWWVNGKEVHSGVCTDPQPLKEQPALNDSRYCLSSRLRVSATFWQNPRNHFRCQVQFYGLSENDEWTQDRAKPVTQIVSAEAWGRADCGITSASYHQGVLSATILYEILLGKATLYAVLVSALVLMAMVKRKDSRGRAKRSGSGATNFSLLKQAGDVEENPGPTSMDWIWRILFLVGAATGAHSFEQAYLQQSGAELVRPGASVKMSCKASGYTFTSYNMHWVKQTPRQGLEWIGGIYPGNGDTSYNQKFKGKATLTVGKSSSTAYMQLSSLTSEDSAVYFCARYDYNYAMDYWGQGTSVTVSSASTRIQNPDPAVYQLRDSKSSDKSVCLFTDFDSQTNVSQSKDSDVYITDKCVLDMRSMDFKSNSAVAWSNKSDFACANAFNNSIIPEDTFFPSSDVPCDVKLVEKSFETDTNLNFQNLSVIGFRILLLKVAGFNLLMTLRLWSSRAKRSGSGVKQTLNFDLLKLAGDVESNPGPSRGHMTEYKPTVRLATRDDVPRAVRTLAAAFADYPATRHTVDPDRHIERVTELQELFLTRVGLDIGKVWVADDGAAVAVWTTPESVEAGAVFAEIGPRMAELSGSRLAAQQQMEGLLAPHRPKEPAWFLATVGVSPDHQGKGLGSAVVLPGVEAAERAGVPAFLETSAPRNLPFYERLGFTVTADVEVPEGPRTWCMTRKPGA
B5: 030817-X05 (protein)
chain: MALPVTALLLPLALLLHAARPDIQMTQSPSSLSASVGDRVTITCRASSSVSYMHWYQQKPGKAPKPLIYAPSNLASGVPSRFSGSGSGTDFTLTISSLQPEDFATYYCQQWSFNPPTFGQGTKVEIKRLEDLKNVFPPEVAVFEPSKAEIAHTQKATLVCLATGFYPDHVELSWWVNGKEVHSGVCTDPQPLKEQPALNDSRYCLSSRLRVSATFWQNPRNHFRCQVQFYGLSENDEWTQDRAKPVTQIVSAEAWGRADCGITSASYHQGVLSATILYEILLGKATLYAVLVSALVLMAMVKRKDSRGRAKRSGSGATNFSLLKQAGDVEENPGPTSMDWIWRILFLVGAATGAHSFEEVQLVESGGGLVQPGGSLRLSCAASGYTFTSYNMHWVRQAPGKGLEWVGAIYPGNGDTSYNQKFKGRFTISVDKSKNTLYLQMNSLRAEDTAVYYCARVVYYSNSYWYFDVWGQGTLVTVSSTRIQNPDPAVYQLRDSKSSDKSVCLFTDFDSQTNVSQSKDSDVYITDKCVLDMRSMDFKSNSAVAWSNKSDFACANAFNNSIIPEDTFFPSSDVPCDVKLVEKSFETDTNLNFQNLSVIGFRILLLKVAGFNLLMTLRLWSSRAKRSGSGVKQTLNFDLLKLAGDVESNPGPSRGHMTEYKPTVRLATRDDVPRAVRTLAAAFADYPATRHTVDPDRHIERVTELQELFLTRVGLDIGKVWVADDGAAVAVWTTPESVEAGAVFAEIGPRMAELSGSRLAAQQQMEGLLAPHRPKEPAWFLATVGVSPDHQGKGLGSAVVLPGVEAAERAGVPAFLETSAPRNLPFYERLGFTVTADVEVPEGPRTWCMTRKPGA
B6: 022817-T04 (protein)
chain: MALPVTALLLPLALLLHAARPEIVLTQSPATLSLSPGERATLSCRASQSVSSYLAWYQQKPGQAPRLLIYDASNRATGIPARFSGSGSGTDFTLTISSLEPEDFAVYYCQQRSNWPITFGQGTRLEIKLEGKPIPNPLLGLDSTGSGEDLKNVFPPEVAVFEPSKAEIAHTQKATLVCLATGFYPDHVELSWWVNGKEVHSGVCTDPQPLKEQPALNDSRYCLSSRLRVSATFWQNPRNHFRCQVQFYGLSENDEWTQDRAKPVTQIVSAEAWGRADCGITSASYHQGVLSATILYEILLGKATLYAVLVSALVLMAMVKRKDSRGRAKRSGSGATNFSLLKQAGDVEENPGPTSMDWIWRILFLVGAATGAHSFEEVQLVESGGGLVQPDRSLRLSCAASGFTFHDYAMHWVRQAPGKGLEWVSTISWNSGTIGYADSVKGRFTISRDNAKNSLYLQMNSLRAEDTALYYCAKDIQYGNYYYGMDVWGQGTTVTVSSTREQKLISEEDGSGIQNPDPAVYQLRDSKSSDKSVCLFTDFDSQTNVSQSKDSDVYITDKCVLDMRSMDFKSNSAVAWSNKSDFACANAFNNSIIPEDTFFPSSDVPCDVKLVEKSFETDTNLNFQNLSVIGFRILLLKVAGFNLLMTLRLWSSRAKRSGSGVKQTLNFDLLKLAGDVESNPGPSRGHMTEYKPTVRLATRDDVPRAVRTLAAAFADYPATRHTVDPDRHIERVTELQELFLTRVGLDIGKVWVADDGAAVAVWTTPESVEAGAVFAEIGPRMAELSGSRLAAQQQMEGLLAPHRPKEPAWFLATVGVSPDHQGKGLGSAVVLPGVEAAERAGVPAFLETSAPRNLPFYERLGFTVTADVEVPEGPRTWCMTRKPGA

Tested on: target antigen-expressing cell line
Experiment: Jurkat NFAT-GFP assay, coculture with target cell lines expressing the respective target antigen (summary Table 10A)
Assay type: cell-based, human
Set-up: key: The signs +/−, +, 2+ etc. after the name of the cell lines indicate the relative degree of positivity on the Jurkat-NFAT-GFP assay as measured by the % GFP positive cells; +: relative degree of positivity on the Jurkat-NFAT-GFP assay as measured by the % GFP positive cells; 2+: relative degree of positivity on the Jurkat-NFAT-GFP assay as measured by the % GFP positive cells
Conditions: relative % GFP positive cells; for NFAT-GFP ASSAY Positive Cell lines: RAJI: SIR-expressing Jurkat-NFAT-GFP cells cocultured with RAJI
In short: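 Readout is % GFP+ cells by FACS, graded +/− to 2+ relative to parental reporter cells. Jurkat-NFAT-GFP cells stably transduced with SIR constructs (puromycin-selected) were mixed with target-antigen-expressing cell lines at roughly 1:2 effector:target and cocultured ~4–18 h.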

Molecule | NFAT-GFP ASSAY Positive Cell lines: RAJI | other results
B1 | – | NFAT-GFP ASSAY Positive Cell lines: U266 (SIR-expressing Jurkat-NFAT-GFP cells cocultured with U266): U266 (+/−)
B2 | RAJI (+/−) | –
B3 | RAJI (+/−) | –
B4 | RAJI (+/−) | –
B5 | RAJI (+/−) | –
B6 | – | NFAT-GFP ASSAY Positive Cell lines: NALM6 (SIR-expressing Jurkat-NFAT-GFP cells cocultured with NALM6): (2+)
